Data taken from a protein production outcome set (Wang et al. 2014).

experiment: label from the status in PepcDB records

| Sequence | protein production |
| --- | --- |
| MTRTTGTRTTGILADGAIRALFAGDKLKSEADLDVDQVQPASLDLRLGSKAYRVRASFMPGPGTRVIDKLNRFSLHEVDLSQGAVLETGCVYIVPLMESLALPADMSASANPKSSTGRLDIFTRVMTDNAQEFDKIPAGYTGPLYLEISPRTFPIVVRRGSRLSQIRFRIGHALLNESEVLKLHETETLVASENPNVTGGGIALSIDLKGFGENGLIGYRGKHHTAVVDVDKKAQHDVLDFWEPLFARGRAELILDPDEFYILVSREAVHVPPLYAAEMTPFDPLVGEFRVHYAGFFDPGFGHAQAGGTGSRAVLEVRSHEVPFILEHGQIVGRLVYEHMLEKPEGLYGTGLGSNYQAQGLKLSKHFRAE | not failed |
| MTRVKSKLDEELSSPWFYTVCTMGGMLSAGTTHLAITPLDVLKVNMQVNPVKYNSIPSGFSTLLREHGHSYLWRGWSGKLLGYGVQGGCRFGLYEYFKTLYSDVLPNHNRTSIYFLSSASAQIFADMALCPFEAIKVRVQTQPMFAKGLLDGFPRVYRSEGLAGFHRGLFPLWCRNLPFSMVMFSTFEQSVEFIYQKIIQKRKQDCSKAQQLGVTCLAGYTAGAVGTIISNPADVVLSSLYNNKAKNVLQAVRNIGFVGLFTRSLPVRITIVGPVITLQWFFYDAIKVLSGFPTSGGVKKPVDAAKLSV | failed |
| MTRVLYCGDTSLETAAGYLAGLMTSWQWEFDYIPSHVGLDVGELLAKQDLVILSDYPAERMTAQAIDQLVTMVKAGCGLVMLGGWESYHGLGGNWDQTLLAEVLPVDIKSADDRINFDQPTLAIPAAINSVSHPILQNLPWEDRPPTIGGLNRIAAKAKAQTLLMARVWRPTFSLEHGKTTWEHADHHPLLVVGEAGTGRVAAFASDVAPHWVGGLVDWGDERVTSQAPGAGAIEVGNLYSQFFRQMLEWVAKSTR | not failed |
| MTSAAQLTALLHLASPALPVGAFSYSQGLEAAVEARHVHDEASAARWIAEGLAVLAACEAPLWLLQYADWQAGRLDAVAERDGWFLATRETRELRLETAQMGWSLARLIAQMGWGAPAMRDALAARAAITFPTAFAAAAVALGIEARDGLTAYSFAWVENQVAAAVKAIPLGQAAGQRILFGLHAAVGQAAEDAARRAACHPPELSTFSPGLGVLSARHETQYSRLFRSLEHHHHHH | failed |
| MTSAQAVSEGTGEAAAQAISLRTWVAVLGSVVGCFMAGMNVHVTNASLPDVRGSLGATFEEGSWITTAYLVAEIIIIPMTGWLVSVFSMRRVLMVGTAGFVLFSIACSLAPNIHSLIFARVLQGAFGGVLIPLSFQLIVTELPAARHPMGMALFAVANNVAQAAGPSLGGWLTDAYSWRWIFYLQVPPGLLLLAAIGWSVRPQPMVLAKLRQGDWGGIASMAVGLSALQIMLEEGGRYDWFASSFISHCAILATVGLLAFVAIELRREQPLINLRLLGRYNFGIASLMQFTFGAVVFGVVFLVPNYFAQIHGYNARQIGLMMIPYGLIQFVMSFATPRLMRWTSARTIIIAGFAITGIGCLMNIHLNPDASVNVIVPSLVVRGIGQSLVVVALGVMAIQGLEKDQVGSASGLFSMVRNVGGAIGIALSSQIVVEREKLHAQRIGESVSLFAQATQERLVELVRLLAQAPVEYATALHSAALAPLRQQALGMVDKVLHRDALLLAYSDAFLLAGLAMLLCVVAGVLLRRA | failed |
| MTSDIKAILEQVVISPDVPIAEAIAQLDRAGTGSLVVCSADKKLYGLLTDGDVRRALLKAVDMGAPCGDIANRKPVITFVPLLPIEALRLMNHHDINHLPVLDAEGRVVDFLLRRDLVAEDELAARARRRLDSVVIPCSASIAEAIAQLDRAGTGALVLCSEGDRLHGLLTDGDIRRAVLRGISLDAPCQDVASRRPVTVEPSFSAAQALHLMNQHDINHLPVVDDTGRVVDFLLRRDLIADDQLNLSAVVMAGGYGKRLLPLTEQVPKPMLPVGDRPLLERTIDQLRRSGIREVNLTTHYLPDSIVEHFGDGDSFGVKLNYLKEDHPLGTAGGLKLMKKASDPFLVMNGDILTGVPFQEMFAYHRKNGAEITVGVRKYEVQVPFGVVECDDVRITGLKEKPSLTFFINAGIYLLEPSVCDLIPEGERFDMTDLIQKLLDEGRSVVSFPIMEYWLDVGRHEDYQKAQEDVRSGKIQLEHHHHHH | failed |
| MTSDQPIRWGIIGPGTIARTFADGVAHSRTGKLVAIATRNPSKPGLAENFPGARIVNGYEALLSDPEVDAVYISVPHTGHAEWAIKAARAGKHILVEKPIALSAYDAEAVYYEAKKAGVFAGEAFMYRVHPQTEKLVELIKSGVIGTLRIIRSSFGFNMGSYRPEHRLFANDTAGGGILDVGGYPVSMARLIAGAAEGKAFLDPEKVSGVAHLGESGVDEWASAVLKFPNEIIAEVSCSIMAQQDNVLRIIGSEGRIEVADFWFASGHKGGVGKIEIFKGGKQETIEVKEERWLYSFEADAAGDAIRAGRTEFSAPGMGWTDSIANLRVLDQWRASVGLEYGVEKAAKRTNNIAGGAVTRGNSIRQRQIPGISKPASVVTLGFEFFPNFAAASLTLDAFYEAGGNAFDTAYVYGAGKTEAIFGDWHTSRNVPREEIVLIGKGAHSPLCYPDMIAKQLDQSLARLKTDYVDIYFMHRDNTDVPVGEFVDAMDAEVKRGRIRGIFGGSNWTRARFDEAIAYAEKNGKTAPAALSNNFSLAEMLDPIWAGCVAASDDDWKKWLNEKQIPNFAWSSQGRGFFTDRAGRDKRDDEEIVRVWYSERNFGRRDRAIELANKLGRNPIHIALAYVIAQPFPVIPLIGPRTVAELEDSLSALDIRLTPDEVKWLEG | failed |
| MTSITPVTLANCEDEPIHVPGAIQPHGALVTLRADGMVLAASENIQALLGFVASPGSYLTQEQVGPEVLRMLEEGLTGNGPWSNSVETRIGEHLFDVIGHSYKEVFYLEFEIRTADTLSITSFTLNAQRIIAQVQLHNDTASLLSNVTDELRRMTGYDRVMAYRFRHDDSGEVVAESRREDLESYLGQRYPASDIPAQARRLYIQNPIRLIADVAYTPMRVFPALNPETNESFDLSYSVLRSVSPIHCEYLTNMGVRASMSISIVVGGKLWGLFSCHHMSPKLIPYPVRMSFQIFSQVCSAIVERLEQGRIAELLRVSTERRLALARRARDADDLFGALAHPDDGIAALIPCDGALVMLGGRTLSIRGDFERQAGNVLQRLQRDPERDIYHTDNWPQPSEDSPDGGDCCGVLAIRFHRQESGWIFWFRHEEVHRIRWGGKPEKLLTIGPSGPRLTPRGSFEAWEEVVRGHSTPWSETDLAIAEKLRLDLMELCLNHAAEVDRMRQRLIAVLGHDLRNPLQSISMAAALLSSSDTRTTELRQHISASSSRMERLVSQILDMSRLQSGIGLTVNPVDTDVSQLVRQIVCETDVAYPGLVIEIAIDPQVRAVVDPDRYAQVAANLLSNARHHGLPGRPVLVTLTRQGDEVCLSVLNETSGLSEAQLANLFEPFKRESADNQRNRNGLGIGLYISQAIAQAHQGRIDVDCRDDVITFCLRLPVRQAETGSSS | failed |
| MTSLPTSLLGDLDPTSDRAVFRQIADQLREAIDRGRFKEGEKLPSEAELVEHYGVSRMTVRNSFSILQGEGLVHAEHGKGVFVRPRPPVRRLASDRFARRHREQGKSAFIVEADAAGSHPQVDSLEVKEEKASQDISTRLGSVRRVLARRRRYLLDGRPVEFATSYLPLDIARDTPIAEPNPGPGGIYARLEELGHRLDHFEEEIRARMPSPSEVKTLRLASGVPVIHLIRTAYDTEGRAVEVCDTVMAADAYVLSYQLPAT | failed |
| MTSLSSKRVAETLDKLHAEAEAADRALMAEMMAQAERSGETLKDLAAKFVDEERLNYRTTYQEHADHFLAISSAYGRFLYAIARARRATRIVEFGTSMGISTIYLAAALRDNGGGRLIGSEIEPTKVARARAHLEATGLADLVDIREGDALDTLKDVGCEVDILSIDGAFSLYLPVLKLIEPRLTPGAVILGENAFAQDYLDYVRAPANGYFSRSLDIDEGRGNEFTVRVG | failed |
| MTSPASCSPPNEKRTGSPFPPESRSLPSTMEMTMNTIFRPAPHPLPDAPFYTPLGNECVLFESAWVRQLPLLLKGPTGCGKTRFVSHMAAKLGLPLSTISCHDDLAAADLTGRYLLKGGETVWMDGPLTRSVRQGGICYLDEIVEARKDVAVVLHPLTDDRRILPLERTGEVLEAPSGFMLVVSYNPGYQNLLKSLKPSTRQRFVAIEFDFLPKEQEIAVVSHESGLDARDVEPLVDLAHRLRGLKGHDLEEGVSTRLLVYCASLIDTGLPARQAVRATMIEPLTDEPDVKAALHEVADAIIRLEHHHHHH | failed |
